According to publication PMC10899662, “TopBP1 utilises a bipartite GINS binding mode to support genome replication” (Nature Communications, 2024):

Molecular target: GINS (HIS-(3C)-Sld5, Psf1, Psf2, Psf3) for structural and fluorescence polarisation studies, Q9BRT9;Q14691;Q9Y248;Q9BRX5
Assay: fluorescence polarisation
Conditions: point at the highest concentration, 150 µM; parent: est. 180; read off a plot

For “fluorescently labelled GINI-core peptide (Ala478-Gly497), WT L490P; L491P”, the response was 3 mP.
